This note sets out measurements from publication PMC10570038, “Cell-type specific regulator RBPMS switches alternative splicing via higher-order oligomerization and heterotypic interactions with other splicing regulators” (Nucleic Acids Research, 2023).

Data set [1] concerns the molecule itself. Description: AUC; sedimentation velocity, 40 000 rpm, 20°C, 20 mM HEPES, 1 mM TCEP, pH 7.9, 500 mM KCl; FL and ΔC20 at equal molar concentration (0.46 and 0.57 mg/ml); continuous c(s) model.
Data set [2] deals with the molecule itself. The data set can be described thus: SEC; size exclusion chromatography of purified untagged recombinant protein; compared with size markers (443 kDa marker, void volume). For orientation: Size exclusion chromatography separates by hydrodynamic size, large species first.

In general, stoichiometry N refers to the number of molecules, sites or subunits per partner or assembly.

B1: recombinant untagged full-length rat RBPMS-A (natural protein)
chain: not shown
notes: RBPMS isoform A (RBPMS-A), rat, cDNA NCBI XM_006253240.2; Exists as a mixture of dimers and higher-order oligomers; From pET15b-TEV-RBPMS-A; also called FL RBPMS; RBPMS-A FL; source: E. coli BL21(DE3), purified (HisTrap, TEV cleavage, Mono Q, Superdex 200); not shown: His6, N-terminal, cleaved
On to B1, for which the “stoichiometry N” value in data set [1] was around 21; in data set [2], 2.
